Source: PMC12147903

Assays:
[1] = biological target: E3 ubiquitin ligase zinc RING finger 3 (Znrf3) (mouse (endogenous in MIN6)) (UniProt Q5SSZ7)
[2] = biological target: T1, leucine-rich repeat-containing G-protein coupled receptor 4 (Lgr4) (mouse (endogenous in MIN6)) (UniProt A2ARI4)
T1 sequence: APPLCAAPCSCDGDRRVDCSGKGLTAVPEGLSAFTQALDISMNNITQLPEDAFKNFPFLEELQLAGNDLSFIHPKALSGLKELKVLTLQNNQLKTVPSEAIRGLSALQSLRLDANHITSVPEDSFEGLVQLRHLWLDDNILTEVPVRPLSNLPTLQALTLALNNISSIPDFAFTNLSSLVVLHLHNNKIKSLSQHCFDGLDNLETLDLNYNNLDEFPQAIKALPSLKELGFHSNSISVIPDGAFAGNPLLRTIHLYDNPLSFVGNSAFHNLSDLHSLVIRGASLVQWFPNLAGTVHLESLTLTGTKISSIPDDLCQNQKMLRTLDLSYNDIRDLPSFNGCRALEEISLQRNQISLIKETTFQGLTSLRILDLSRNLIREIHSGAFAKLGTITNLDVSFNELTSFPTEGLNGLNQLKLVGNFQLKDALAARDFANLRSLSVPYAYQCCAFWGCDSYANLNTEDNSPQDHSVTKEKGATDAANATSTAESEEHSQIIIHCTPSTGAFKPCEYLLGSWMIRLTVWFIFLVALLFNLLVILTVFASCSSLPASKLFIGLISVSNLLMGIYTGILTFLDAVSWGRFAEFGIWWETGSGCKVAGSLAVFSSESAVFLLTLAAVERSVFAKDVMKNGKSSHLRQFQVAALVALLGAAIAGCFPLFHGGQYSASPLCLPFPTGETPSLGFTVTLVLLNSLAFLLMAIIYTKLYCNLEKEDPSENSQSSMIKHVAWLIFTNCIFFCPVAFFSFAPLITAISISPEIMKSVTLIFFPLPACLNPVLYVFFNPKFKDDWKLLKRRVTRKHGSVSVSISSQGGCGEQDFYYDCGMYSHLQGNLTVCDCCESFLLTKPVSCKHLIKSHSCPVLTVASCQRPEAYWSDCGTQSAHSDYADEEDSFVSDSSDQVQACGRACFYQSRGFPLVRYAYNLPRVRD

human RSPO1, sequence (Q2MKA7 21-263): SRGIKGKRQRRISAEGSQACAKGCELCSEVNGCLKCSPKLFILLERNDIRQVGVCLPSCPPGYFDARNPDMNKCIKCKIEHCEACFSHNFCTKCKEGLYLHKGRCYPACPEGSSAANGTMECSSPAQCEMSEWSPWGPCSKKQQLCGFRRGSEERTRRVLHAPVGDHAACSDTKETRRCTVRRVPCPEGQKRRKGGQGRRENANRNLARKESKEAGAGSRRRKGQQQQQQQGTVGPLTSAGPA
UniProt Q5SSZ7, sequence (Q5SSZ7 53-913): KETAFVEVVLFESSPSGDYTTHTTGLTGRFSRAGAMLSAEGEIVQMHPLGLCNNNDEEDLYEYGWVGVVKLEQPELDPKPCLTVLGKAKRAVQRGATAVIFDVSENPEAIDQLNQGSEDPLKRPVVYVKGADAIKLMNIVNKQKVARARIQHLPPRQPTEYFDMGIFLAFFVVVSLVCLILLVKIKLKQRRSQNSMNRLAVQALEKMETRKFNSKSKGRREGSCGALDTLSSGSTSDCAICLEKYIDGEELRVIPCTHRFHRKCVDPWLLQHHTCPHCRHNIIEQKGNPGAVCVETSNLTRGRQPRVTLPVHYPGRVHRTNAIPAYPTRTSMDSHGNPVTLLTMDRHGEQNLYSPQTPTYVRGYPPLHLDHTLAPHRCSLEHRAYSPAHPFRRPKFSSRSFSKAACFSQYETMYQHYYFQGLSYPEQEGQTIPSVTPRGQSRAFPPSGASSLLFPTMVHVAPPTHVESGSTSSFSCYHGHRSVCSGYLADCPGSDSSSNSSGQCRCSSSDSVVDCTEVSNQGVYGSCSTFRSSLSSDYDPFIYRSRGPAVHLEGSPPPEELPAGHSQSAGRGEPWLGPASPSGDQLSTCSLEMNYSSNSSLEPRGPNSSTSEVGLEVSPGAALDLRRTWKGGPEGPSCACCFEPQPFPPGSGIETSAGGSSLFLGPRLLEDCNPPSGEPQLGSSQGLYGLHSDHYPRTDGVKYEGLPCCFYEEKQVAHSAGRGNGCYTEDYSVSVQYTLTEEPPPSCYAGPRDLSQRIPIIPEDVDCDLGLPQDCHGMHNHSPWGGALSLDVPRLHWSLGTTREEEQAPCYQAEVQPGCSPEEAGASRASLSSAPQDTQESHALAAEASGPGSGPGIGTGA

MIN6 cell number after 24 h of incubation with increasing doses of human RSPO1, against controls [1]: 2.08 fold | MIN6 cell number after 24 h of incubation with increasing doses of human RSPO1, against controls [2]: 2.08 fold
Substance: human RSPO1 (from UniProt Q2MKA7 21-263) (ligand)
